From patent publication US7015023

How the values were obtained:
[1] = molecular target: GUS-YVAA-HBD fusion protein (beta-glucuronidase, Tyr-Val-Ala-Ala-Gly linker, hormone binding domain of rat glucocorticoid receptor) (UniProt P05804)
[2] = molecular target: GUS alone (beta-glucuronidase) (UniProt P05804)
Chain of GUS alone (beta-glucuronidase) (P05804 whole entry, looked up): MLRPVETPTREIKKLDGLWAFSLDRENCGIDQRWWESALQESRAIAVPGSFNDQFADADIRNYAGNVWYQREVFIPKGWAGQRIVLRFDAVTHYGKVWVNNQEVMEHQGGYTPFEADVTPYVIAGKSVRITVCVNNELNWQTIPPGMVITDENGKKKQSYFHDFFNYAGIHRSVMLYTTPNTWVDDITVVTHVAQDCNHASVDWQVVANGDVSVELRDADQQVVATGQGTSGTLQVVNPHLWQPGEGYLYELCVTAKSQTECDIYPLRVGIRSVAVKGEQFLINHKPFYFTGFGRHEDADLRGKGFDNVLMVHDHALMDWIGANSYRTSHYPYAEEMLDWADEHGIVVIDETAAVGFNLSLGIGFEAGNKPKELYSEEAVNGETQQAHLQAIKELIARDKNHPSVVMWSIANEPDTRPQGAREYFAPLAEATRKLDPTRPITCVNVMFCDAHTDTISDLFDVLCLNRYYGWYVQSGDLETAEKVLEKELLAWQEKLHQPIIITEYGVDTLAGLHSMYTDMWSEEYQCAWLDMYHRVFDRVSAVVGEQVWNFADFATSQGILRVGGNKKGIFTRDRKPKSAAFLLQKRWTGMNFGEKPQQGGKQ

Chain of GUS-YVAA-HBD fusion protein (beta-glucuronidase, Tyr-Val-Ala-Ala-Gly linker, hormone binding domain of rat glucocorticoid receptor) (P05804 other isoform, or with tags, fused parts or gaps): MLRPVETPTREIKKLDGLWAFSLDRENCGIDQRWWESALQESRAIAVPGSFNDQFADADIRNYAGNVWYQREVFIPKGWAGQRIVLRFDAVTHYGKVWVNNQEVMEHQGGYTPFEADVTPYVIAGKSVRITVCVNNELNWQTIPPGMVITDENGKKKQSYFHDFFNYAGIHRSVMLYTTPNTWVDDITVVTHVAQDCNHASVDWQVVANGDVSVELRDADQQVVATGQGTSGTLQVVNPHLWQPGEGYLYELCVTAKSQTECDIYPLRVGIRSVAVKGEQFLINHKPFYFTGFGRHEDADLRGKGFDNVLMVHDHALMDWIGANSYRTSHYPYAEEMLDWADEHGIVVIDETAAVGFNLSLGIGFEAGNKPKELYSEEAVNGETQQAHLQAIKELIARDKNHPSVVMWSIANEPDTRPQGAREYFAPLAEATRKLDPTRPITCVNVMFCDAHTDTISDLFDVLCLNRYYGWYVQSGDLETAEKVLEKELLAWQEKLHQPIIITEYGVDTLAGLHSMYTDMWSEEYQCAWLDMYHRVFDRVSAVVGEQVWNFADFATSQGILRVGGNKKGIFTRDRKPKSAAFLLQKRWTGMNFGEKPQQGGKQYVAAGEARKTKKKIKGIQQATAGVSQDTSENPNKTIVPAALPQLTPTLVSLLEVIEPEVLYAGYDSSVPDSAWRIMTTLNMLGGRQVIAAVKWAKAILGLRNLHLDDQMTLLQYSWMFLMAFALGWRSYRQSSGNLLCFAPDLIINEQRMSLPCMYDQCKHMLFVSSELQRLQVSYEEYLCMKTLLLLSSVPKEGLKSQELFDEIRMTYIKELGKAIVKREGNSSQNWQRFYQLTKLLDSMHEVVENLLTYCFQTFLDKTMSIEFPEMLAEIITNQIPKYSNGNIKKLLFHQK

With purified caspase-1 the “GUS activity of in vitro translated fusion after addition of caspase-1” value [1] was “no detectable increase in GUS activity is observed”, the “proteolytic cleavage, SDS-PAGE autoradiogram of 35S-labelled protein” value [1] was “no obvious proteolysis was detected by caspase-1 was observed with either the P1 linker mutant fusion or the GUS alone control” and the “proteolytic cleavage, SDS-PAGE autoradiogram of 35S-labelled protein” value [2] was “no obvious proteolysis was detected by caspase-1 was observed with either the P1 linker mutant fusion or the GUS alone control”.
